These results are taken from patent US10646600B2, “HER2 polypeptides useful for imaging and monitoring tumors and cancers” (GE HEALTHCARE LIMITED, priority 2013, dated 2020).

As a reminder, the Kd is the free concentration of one partner at which half of the binding sites on the other are occupied at equilibrium, for simple one-to-one binding.

Like-named read-outs stand apart in the source and are kept apart here.

The target of test [1] is T1, human HER2 (Homo sapiens, UniProt P04626).
T1 construct: Human, rhesus and rat HER2-ECD-Fc (SINO Biological, Beijing, China, Cat. Nr: 10004-H02H, 90020-K02H, and 80079-R02H); Fc (C); purchased SINO Biological 10004-H02H
Nature of the test: Surface Plasmon Resonance, human HER2-ECD-Fc. The format is binding. As for the experimental part: To characterize the affinity of [^19F]GE-226[SEQ ID NO 1] to HER2 protein, Surface Plasmon Resonance studies were conducted. Human, rhesus and rat HER2-ECD-Fc (SINO Biological, Beijing, China, Cat. Nr: 10004-H02H, 90020-K02H, and 80079-R02H), as well as human HER2-ECD-Fc-6×His (R&D Systems, Minneapolis, Minn., Cat. Nr: 1129-ER) and p95HER2 ECD-Fc-6×His (Syngene, Cambridge, United Kingdom) were diluted with 50 mM sodium acetate pH 4.5 (Biacore (GE Healthcare, Buckinghamshire, UK) coupling buffer) to a final concentration of 10 μg/mL. Antigen coupling to Biacore sensor chip CMS (Cat. Nr: BR-1005-30) was done according to amine coupling protocol from the instrument manual (Syngene). HBS-EP buffer (10 mM HEPES pH 7.4, 150 mM NaCl, 3 mM EDTA and 0.005% surfactant P20; GE Healthcare, Little Chalfont, United Kingdom, Cat. Nr: BR-1006-69) was used as running buffer and as solvent for the substances. The affinity studies were performed using a Biacore T100 (GE Healthcare). [^19F]GE-226 was diluted in HBS-EP buffer to 50 nM, 25 nM, 12.5 nM, 6.25 nM, 3.125 nM, 1.56 nM, 0.78 nM, 0.39 nM, 0.195 nM, 0.097 nM, 0.049 nM and 0 nM. The flow cells of the first chip comprised of blank, human HER2-ECD-Fc-6×His, p95HER2-ECD-Fc-6×His batch I and p95HER2-ECD-Fc-6×His batch II. The flow cells on the second chip contained blank, human HER2-ECD-Fc, rhesus HER2-ECD-Fc and rat HER2 ECD-Fc. The immobilization of the proteins was validated with protein-A (Sigma-Aldrich, St. Louis, Mo., Cat. Nr: P6031) and anti-human IgG antibody (Perkin Elmer, Waltham, Mass., Cat. Nr: NEF803001EA). [^19F]GE-226[SEQ ID NO 1] was pumped in duplicate over cells in randomized order for 60 sec at 50 μL/min flow rate followed by 120 sec of HBS-EP to monitor dissociation. This was followed by regeneration of the chip with 50 mM sodium hydroxide for 30 sec at 30 μL/min flow rate followed by 60 sec run of HBS-EP to stabilize the surface. Kinetic calculations were performed using Langmuir 1:1 binding model and simultaneous calculation of association and dissociation phase.

Test [2] relates to SKOV-3 cells. Nature of the test: In vitro uptake assay in SKOV-3 cells (blocking, siRNA, drug treatment, specific activity). The test is classed as cell-based, human. How it is done: For siRNA-mediated HER2 knockdown, SKOV-3 cells were transfected with 25 nM scramble control (SCR; Dharmacon, Lafayette, Colo., ON-TARGETplus Non-targeting Pool, Cat. Nr: D-001810-10-05) or HER2-targeting siRNA (Invitrogen ERBB2 Silencer® Select Validated siRNA; Cat. Nr: 4457298) by reverse wet transfection with Lipofectamine RNAiMAX (Invitrogen) according to manufacturer's instructions. 3×10^5 cells were seeded in 12-well plates 48 h prior to uptake experiment. Target knockdown was verified by western blotting on cells that were transfected in parallel.
For all uptake studies in response to drug treatment, 2.5×10^5 SKOV-3 cells were seeded in complete medium 48 h prior to uptake experiments.
For baseline uptake in HER2 positive or negative lineages, 3×10^5 cells were seeded in complete media in 12-well plates (Corning, Tewksbury Mass.) and allowed to recover overnight. Cells were washed twice with serum-free medium and pulsed with 370 KBq in 500 μL serum-free medium for one h. For blocking studies, cells were co-incubated with tracer and 0.5 mg/mL cold unlabeled [^19F]GE-226[SEQ ID NO 1].
Cells were washed with PBS, trypsinized, neutralized with complete medium and centrifuged. The pellet was washed three times with PBS and lysed in 120 μL RIPA buffer (Sigma-Aldrich). The radioactivity of 100 μL lysate was counted on a Packard Cobra II gamma counter (Perkin Elmer). Radioactivity was normalized to applied radioactivity and protein content, which was determined for each sample by BCA assay (Pierce, Rockford, Ill.).

Take “[^19F]GE-226: cold unlabeled non-radioactive 19F analogue of the tracer, used for SPR and blocking”: in test [1] (Human HER2), the Off-rate koff stood at 0.00131 s⁻¹ and the Rmax was 133.5. Also, the On-rate kon in test [1] (Human HER2, Langmuir 1:1 binding model) was determined as 1.73e+07 M⁻¹ s⁻¹. In test [1] (Human HER2, fit statistic), the “Chi-Square χ^2” value is 0.607 and the U-value turned out to be 3. For the same substance, the Kd in test [1] (Human HER2, read-out: Affinity KD) amounted to 0.0758 nM. The Kd in test [1] (human HER2, text, read-out: KD) worked out at 0.076 nM. The “binding to human HER2 (words)” value in test [1] (listed as GE-226) is on record as “binds with high affinity”. Moreover, the “binding to human HER2 (words)” value in test [1] (listed as [^19F]-GE-226) was “high affinity binding”. Besides, the “reduction of [18F]GE-226 uptake by blocking” value in test [2] (co-incubation with 0.5 mg/mL cold [19F]GE-226, 60 minutes) is 96.8±2.6%. In test [2] (co-incubation with large excess of 19F analogue), the “[18F]GE-226 uptake compared to control cells (100±12%)” value stood at 3.1±2.6%.
Regarding “[^18F]GE-226: HER2-binding 18F-radiolabelled Affibody molecule ZHER2:2891”, the Kd in test [1] (human HER2, text, read-out: KD) was determined as 0.076 nM. Moreover, the “tracer uptake in comparison to freshly prepared tracer” value in test [2] (incubation initiated 70 minutes later (specific activity)) was 39.5±8.5%; in test [2] (incubation initiated 140 minutes later (specific activity)), 24.9±3.8%.
